Assay [1] addresses IgE of pooled serum samples (human). The assay can be described thus: cross-inhibition ELISA; inhibitor 1 ug/ml with pooled sera; C. idella parvalbumin on the plate.
For assay [2] the target is unchanged. The assay can be described thus: cross-inhibition ELISA; inhibitor 50 ug/ml with pooled sera; C. idella parvalbumin on the plate. In general terms: In an ELISA, binding on a coated surface is turned into a signal by an enzyme label.
For assay [3] the target is unchanged. Kind of assay: cross-inhibition ELISA; C. idella parvalbumin on the plate; inhibitor concentration not stated.

Our source for the % inhibition of IgE binding values is patent publication US20200191797A1.

B1: recombinant cod allergen Gad m 1 (cod parvalbumin) (protein, UniProt Q90YK9 1-109, looked up, not shown: small tags and cut ends)
chain: MAFAGILNDADITAALAACKAEGSFDHKAFFTKVGLAAKSPADIKKVFEIIDQDKSDFVEEDELKLFLQNFSAGARALSDAETKVFLKAGDSDGDGKIGVDEFGAMIKA
With B1, the figures for the % inhibition of IgE binding in assay [1] and in assay [2] were 40% and 50%, respectively.

B2: recombinant aldolase A of grass carp Ctenopharyngodon idella (enzyme, not shown: small tags and cut ends)
chain: MPHAYPFLTPEQKKELSDIALRIVAPGKGILAADESTGSVAKRFQSINAENTEENRRLYRQLLFTADDRVKPCIGGVILFHETLYQKADDGKLFSQLLKERGMVVGIKVDKGVVPLAGTNGETTTQGLDGLYERCAQYKKDGADFAKWRCVLKITSTTPSRLAIIENANVLARYASICQMHGIVPIVEPEILPDGDHDLKRCQYVTEKVLAAVYKALSDHHVYLEGTLLKPNMVTAGHSCSQKNTPQEIAMATVTALRRTVPPAVPGITFLSGGQSEEEATLNLNAMNKCPLHRPWALTFSYGRALQASALKAWGGKKENGKACQEEFIKRALNNSLACVGKYVSSGDKGAAAGESLFVANHAY
Turning to B2, the % inhibition of IgE binding in assay [3] was 10%.
